Measured values from paper PMC6168492, “Human and mouse albumin bind their respective neonatal Fc receptors differently” (Scientific Reports, 2018).

Key:
[1] = target: T1, wild-type mouse serum albumin with C-terminal GST (mouse, UniProt P07724 25-608); assay: SPR; Biacore T200; albumin variants amine-coupled on CM5 (~200 or 500 RU); monomeric His-tagged hFcRn or mFcRn injected in serial dilutions; phosphate buffer (177 mM phosphate, 85 mM NaCl, 0.05% Tween 20) pH 5.5, 30 µl/min, 25 °C; 1:1 Langmuir model; conditions: both partners purified
T1 construct: mouse serum albumin; also called MSA WT; WT MSA; source: HEK293E, transiently transfected, purified from supernatant (GSTrap FF); not shown: GST (Schistosoma japonicum), C-terminal, kept

[2] = target: T1, wild-type mouse serum albumin with …; assay: SPR; receptor binding to immobilised albumin at pH 5.5 in the presence of 0.005% Tween-20 instead of 0.05%; conditions: both partners purified

T1 sequence (P07724 25-608): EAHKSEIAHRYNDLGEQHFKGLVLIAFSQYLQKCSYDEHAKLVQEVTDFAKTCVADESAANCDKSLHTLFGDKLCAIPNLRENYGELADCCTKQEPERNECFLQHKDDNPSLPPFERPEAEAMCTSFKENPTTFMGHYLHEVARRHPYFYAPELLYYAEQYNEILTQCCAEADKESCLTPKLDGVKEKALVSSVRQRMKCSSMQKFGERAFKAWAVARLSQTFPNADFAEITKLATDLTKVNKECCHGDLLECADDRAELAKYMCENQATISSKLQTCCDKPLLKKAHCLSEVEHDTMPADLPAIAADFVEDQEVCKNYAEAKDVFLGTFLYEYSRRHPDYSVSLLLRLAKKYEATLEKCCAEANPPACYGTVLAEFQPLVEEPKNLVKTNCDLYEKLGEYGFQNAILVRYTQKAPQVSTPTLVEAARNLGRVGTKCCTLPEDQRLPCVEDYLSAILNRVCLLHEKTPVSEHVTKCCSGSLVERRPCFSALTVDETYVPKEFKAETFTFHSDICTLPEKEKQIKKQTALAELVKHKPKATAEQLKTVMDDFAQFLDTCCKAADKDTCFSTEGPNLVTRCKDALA

B1: soluble monomeric His-tagged mouse neonatal Fc receptor (mFcRn) (receptor)
chain: SETRPPLMYHLTAVSNPSTGLPSFWATGWLGPQQYLTYNSLRQEADPCGAWMWENQVSWYWEKETTDLKSKEQLFLEALKTLEKILNGTYTLQGLLGCELASDNSSVPTAVFALNGEEFMKFNPRIGNWTGEWPETEIVANLWMKQPDAARKESEFLLNSCPERLLGHLERGRRNLEWKEPPSMRLKARPGNSGSSVLTCAAFSFYPPELKFRFLRNGLASGSGNCSTGPNGDGSFHAWSLLEVKRGDEHHYQCQVEHEGLAQPLTVDLDSSARSS
b2m: IQKTPQIQVYSRHPPENGKPNILNCYVTQFHPPHIEIQMLKNGKKIPKVEMSDMSFSKDWSFYILAHTEFTPTETDTYACRVKHASMAEPKTVYWDRDM
notes: neonatal Fc receptor heavy chain, mouse, soluble form; beta2-microglobulin, non-covalently associated with the heavy chain; Surmised: the His tag sits on the truncated heavy chain; also called mouse FcRn; the mouse receptor
Binder B1 has a Kd [1] of 547 nM, a koff [1] of 0.0164 s⁻¹ and a kon [1] of 30000 M⁻¹ s⁻¹. The “fold change of KD in 0.005% against 0.05% Tween-20” value [2] was 1.7 fold.
